For experiment [1], the target named is T1, BST-1 (Homo sapiens, UniProt Q10588).
T1 construct: made in house; host or cells: baculovirus (pVL1393); virus made in Sf9, protein expressed in High five insect cells
T1 sequence (Q10588 33-297): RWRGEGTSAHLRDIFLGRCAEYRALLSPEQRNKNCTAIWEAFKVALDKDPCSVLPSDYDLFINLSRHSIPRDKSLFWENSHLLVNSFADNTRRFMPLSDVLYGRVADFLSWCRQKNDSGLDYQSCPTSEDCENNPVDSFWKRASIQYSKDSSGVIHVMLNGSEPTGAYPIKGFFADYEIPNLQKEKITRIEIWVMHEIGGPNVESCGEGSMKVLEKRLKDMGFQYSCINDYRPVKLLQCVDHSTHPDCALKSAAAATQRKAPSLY
The experiment is described as follows: Inhibition of ADP-ribosyl cyclase activity of BST-1 (NGD method). It counts as biochemical. The settings on record: DTT 10 mM. An excerpt: The fact that the peptide thus obtained inhibits ADP-ribosyl cyclase activity of BST-1 may be identified by comparing the ADP-ribosyl cyclase activity when measured in the absence of the peptide with the activity in the presence of the peptide. As previously mentioned, NAD is converted to cADP-ribose by ADP-ribosyl cyclase activity of BST-1, and therefore, the activity may be measured by allowing to react NAD with BST-1 and then quantitatively determining NAD and cADP-ribose after separation of them by anion-exchange chromatography (FEBS letters, 356, 244, 1994). Alternatively, nicotinamide guanine dinucleotide (NGD) may be used as a substrate instead of NAD, which is converted to cyclic guanosine-5′-diphosphate-ribose cGDP-ribose that can be fluorimetrically measured with an excitation wavelength of 300 nm and an emission wavelength of 410 nm, whereby the velocity of the formation of cGDP-ribose reflects ADP-ribosyl cyclase activity (J. Biol. Chem., […], 30260, 1994).
The abscissa is time course and the ordinate is fluorescence intensity. Purified BST-1 (4 μg/ml) was mixed with NGD (300 μM), and the mixture was allowed to react at 25° C. for 300 seconds, and then the synthetic peptide SNP-1 was added thereto at the concentration of 20 μM.
Inhibition of ADP-ribosyl cyclase activity of BST-1 by synthetic peptides was tested by means of the NGD method previously mentioned. […]

Experiment [2] addresses T2, bovine serum albumin (bovine, UniProt P02769 25-607).
T2 construct: also called BSA
The experiment is described as follows: phage ELISA, well coated with BSA alone.

The target of experiment [3] is T3, soluble human bone marrow stromal cell antigen-1 (BST-1) (human, UniProt Q10588 33-297).
T3 construct: range 1-297; Expressed with baculovirus in High five insect cells, purified to 95% or more; The construct encodes codons 1-297; also called purified BST-1; soluble BST-1
T3 sequence (looked up): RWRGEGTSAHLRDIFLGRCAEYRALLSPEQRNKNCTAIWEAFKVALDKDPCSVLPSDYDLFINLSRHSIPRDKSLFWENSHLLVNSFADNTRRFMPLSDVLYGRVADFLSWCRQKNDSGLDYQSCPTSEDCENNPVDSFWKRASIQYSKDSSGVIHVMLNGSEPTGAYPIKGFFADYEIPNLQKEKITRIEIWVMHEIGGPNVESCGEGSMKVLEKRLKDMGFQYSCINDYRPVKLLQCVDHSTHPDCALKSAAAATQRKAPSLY
The experiment can be described thus: Biacore SPR, BST-1 amine-coupled on CM5, equilibrium values at 400-2000 nM peptide, Scatchard plot. As for the experimental part:
BST-1 was immobilized at 2800 resonance unit (RU) on the sensor chip CM5 of a bio-sensor for analyzing protein interactions, BIACORE (Biacore K.K.), by means of an amine coupling method. The synthetic peptides were passed through the sensor chip at the flow rate of 40 µl/min at the concentration of from 400 nM to 2000 nM. Equilibrium binding value was obtained for each concentration. Based on the equilibrium binding values, dissociation constants were calculated by means of Scatchard plot method (Hulme E. C.; Receptor-binding studies, a brief outline, in Receptor Biochemistry: A Practical Approach, 303–315, IRL press, 1990).

Where no end group is shown, it is not given here. The star is where a group is joined. Biotin = O=C1N[C@H]2[C@H](CS[C@H]2CCCCC(=O)*)N1

T2 sequence (P02769 25-607 limits assumed): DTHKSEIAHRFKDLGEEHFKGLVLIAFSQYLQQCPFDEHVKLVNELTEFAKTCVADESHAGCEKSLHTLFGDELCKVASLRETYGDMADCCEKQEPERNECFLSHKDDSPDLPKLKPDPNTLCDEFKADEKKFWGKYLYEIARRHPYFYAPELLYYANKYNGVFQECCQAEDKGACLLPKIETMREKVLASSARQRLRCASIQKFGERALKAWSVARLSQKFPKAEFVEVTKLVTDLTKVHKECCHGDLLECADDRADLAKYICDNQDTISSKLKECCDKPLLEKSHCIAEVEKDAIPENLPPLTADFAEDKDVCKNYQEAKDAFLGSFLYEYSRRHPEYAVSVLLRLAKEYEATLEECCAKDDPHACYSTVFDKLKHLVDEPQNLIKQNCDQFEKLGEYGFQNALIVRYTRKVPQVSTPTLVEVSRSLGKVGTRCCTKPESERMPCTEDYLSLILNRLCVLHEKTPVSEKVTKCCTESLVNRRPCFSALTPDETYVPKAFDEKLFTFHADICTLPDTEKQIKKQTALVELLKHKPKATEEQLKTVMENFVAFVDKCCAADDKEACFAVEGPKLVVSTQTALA

For `O[C@@H](CS)[C@@H](O)CS` [DTT], the “ADP-ribosyl cyclase activity of BST-1 after addition of reducing agent” value in experiment [1] is listed as “complete disappearance”.

B1: phage SN-16 (phage expressing the peptide defined by SEQ ID NO: 2) (peptide)
peptide: DDVVYTNIHKWGRRE
notes: not shown: phage coat protein of the Fuse 5 vector to which the peptide is fused; not specified
For B1, in experiment [2], the binding result is on record as “no binding”. In experiment [3], HSQISGKYQRYLKDAK(Biotin) [SNPb-1 (SNP-1 with an additional C-terminal Lys carrying biotin)] displayed a Kd of 810 nM.

B2: synthetic peptide SNP-1 (peptide)
peptide: HSQISGKYQRYLKDA
notes: 15-residue synthetic peptide, purity 95% or more; also called prototype SNP-1; original SNP-1
Consider B2, for which the Kd in experiment [3] came to 510 nM.

B3: phage SN-1 (phage expressing the peptide defined by SEQ ID NO: 1) (peptide)
peptide: HSQISGKYQRYLKDA
notes: as for B1
As to B3, the binding result in experiment [2] is “no binding”. The molecule {Sulfo‑NHS‑LC‑Biotin}-HSQISGKYQRYLKDA [bSNP-1 (SNP-1 biotinylated at the N-terminal)] showed a Kd in experiment [3] of 530 nM.
